From doi:10.1101/2024.06.24.600433, “Role of the antiparallel double-stranded filament form of FtsA in activating the Escherichia coli divisome” (bioRxiv, 2024)

Assays:
[1] = target: the molecule itself; assay: cross-linking; in vivo cysteine crosslinking of E. coli cells in cold PBS with 0.5 mM BMB or BMH for 10 min, quenched with 40 mM BME; SDS-PAGE and anti-FtsA immunoblot; dividing cells (ftsZ84(ts) 10 and 20 min after return to 30°C; ftsQ1ts, zipA1ts and ftsA^o strains at 30°C, ftsA^o strain also at 42°C; WM4952 at 37°C; WM4953 ftsL*)
[2] = target: the molecule itself; assay: cross-linking; in vivo cysteine crosslinking, ftsQ1(ts) strain WM7148 shifted to the nonpermissive 42°C; anti-FtsA immunoblot
[3] = target: the molecule itself; assay: cross-linking; in vivo cysteine crosslinking, zipA1(ts) strain WM7149 shifted to the nonpermissive 42°C; anti-FtsA immunoblot

Protein | DS filament crosslinking at Q155C relative to WT FtsA [1] | fold decrease of the crosslinked band at 42°C against 30°C [2] [fold] | fold decrease of the crosslinked band at 42°C against 30°C [3] [fold]
FtsA^M71A with Q155C (natural protein, E. coli, UniProt P0ABH0 1-420, looked up, FtsA of E. coli with M71A and Q155C; M71A introduced into pWM7049 or pWM7239 by site-directed mutagenesis; I take them to be the Q155C and the R286W Q155C derivatives of pDSW210-FLAG-FtsA; source: E. coli, expressed from a plasmid, in cells (crosslinked in vivo)) MIKATDRKLVVGLEIGTAKVAALVGEVLPDGMVNIIGVGSCPSRGMDKGGVNDLESVVKCVQRAIDQAELAADCQISSVYLALSGKHISCQNEIGMVPISEEEVTQEDVENVVHTAKSVRVRDEHRVLHVIPQEYAIDYQEGIKNPVGLSGVRMCAKVHLITCHNDMAKNIVKAVERCGLKVDQLIFAGLASSYSVLTEDERELGVCVVDIGGGTMDIAVYTGGALRHTKVIPYAGNVVTSDIAYAFGTPPSDAEAIKVRHGCALGSIVGKDESVEVPSVGGRPPRSLQRQTLAEVIEPRYTELLNLVNEEILQLQEKLRQQGVKHHLAAGIVLTGGAAQIEGLAACAQRVFHTQVRIGAPLNITGLTDYAQEPYYSTAVGLLHYGKESHLNGEAEVEKRVTASVGSWIKRLNSWLRKEF | ~35 % of WT levels |  | 
FLAG-FtsA^Q155C (natural protein, E. coli, UniProt P0ABH0 1-420, looked up, FtsA of E. coli with Q155C, made by site-directed mutagenesis on pWM2785 (pDSW210-FLAG-FtsA); probably the whole FtsA reading frame, since it complements an ftsA null allele; also called pDSW210-FLAG-FtsA^Q155C; source: E. coli, expressed from pDSW210 with IPTG, in cells (crosslinked in vivo); not shown: FLAG, N-terminal, kept) MIKATDRKLVVGLEIGTAKVAALVGEVLPDGMVNIIGVGSCPSRGMDKGGVNDLESVVKCVQRAIDQAELMADCQISSVYLALSGKHISCQNEIGMVPISEEEVTQEDVENVVHTAKSVRVRDEHRVLHVIPQEYAIDYQEGIKNPVGLSGVRMCAKVHLITCHNDMAKNIVKAVERCGLKVDQLIFAGLASSYSVLTEDERELGVCVVDIGGGTMDIAVYTGGALRHTKVIPYAGNVVTSDIAYAFGTPPSDAEAIKVRHGCALGSIVGKDESVEVPSVGGRPPRSLQRQTLAEVIEPRYTELLNLVNEEILQLQEKLRQQGVKHHLAAGIVLTGGAAQIEGLAACAQRVFHTQVRIGAPLNITGLTDYAQEPYYSTAVGLLHYGKESHLNGEAEVEKRVTASVGSWIKRLNSWLRKEF |  | 3 | 7.5
